In article PMC8409457 (2021):
Bridges are numbered along the chain shown (N, C = ends). Where no end group is shown, it is not given here.

B1: oxidized peptide 16 (peptide)
chain: GCMILLDTDIWCPCSHPYACPENICC
modifications: disulfide 12-26 (inferred); disulfide 14-20, 2-25
B2: reduced linear peptide 15 (peptide)
chain: GCEKATESESPCPCIFPELCPWIVCC
modifications: cysteines reduced (no disulfide bonds)

Assays:
[1] = molecular target: T1, Bcl-2 (UniProt P10415 1-239); experiment: FP
[2] = molecular target: T1, Bcl-2; experiment: SPR
[3] = molecular target: MDM2 (UniProt Q00987 1-491); experiment: FP; reduced
MDM2, sequence (Q00987 whole entry): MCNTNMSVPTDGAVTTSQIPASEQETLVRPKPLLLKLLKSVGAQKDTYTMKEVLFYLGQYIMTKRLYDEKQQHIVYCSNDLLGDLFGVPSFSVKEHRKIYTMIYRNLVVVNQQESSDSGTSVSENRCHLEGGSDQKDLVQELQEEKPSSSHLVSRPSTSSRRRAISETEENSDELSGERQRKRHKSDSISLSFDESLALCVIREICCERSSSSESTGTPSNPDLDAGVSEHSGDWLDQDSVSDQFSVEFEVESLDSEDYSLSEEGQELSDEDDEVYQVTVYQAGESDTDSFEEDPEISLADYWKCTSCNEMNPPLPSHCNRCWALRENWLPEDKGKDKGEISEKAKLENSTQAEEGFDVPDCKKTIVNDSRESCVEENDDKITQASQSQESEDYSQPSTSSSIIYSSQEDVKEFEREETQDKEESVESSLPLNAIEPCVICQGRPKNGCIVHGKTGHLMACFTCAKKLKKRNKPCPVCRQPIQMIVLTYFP

T1 sequence (P10415 whole entry): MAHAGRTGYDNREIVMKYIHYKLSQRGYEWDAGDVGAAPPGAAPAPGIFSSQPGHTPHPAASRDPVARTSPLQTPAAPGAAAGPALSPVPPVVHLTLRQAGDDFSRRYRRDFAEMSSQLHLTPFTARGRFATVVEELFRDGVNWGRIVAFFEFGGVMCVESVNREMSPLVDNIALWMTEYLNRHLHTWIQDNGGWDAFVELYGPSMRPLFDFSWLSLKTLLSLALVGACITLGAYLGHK

Binder	Ki [1] [nM]	koff [2] [s⁻¹]	Ki [3] [nM]
B1	770	0.0498	–
B2	–	–	1120
